Experimental data: FireProtDB (doi:10.1021/bi050142b)

Conditions: Kitasatospora aureofaciens, 30 °C, GdnHCl, reversible: yes (>98%), whole UniProt chain shown

B1: Guanyl-specific ribonuclease Sa wild type, P05798 (protein)
chain: DVSGTVCLSALPPEATDTLNLIASDGPFPYSQDGVVFQNRESVLPTQSYGYYHEYTVITPGARTRGTRRIITGEATQEDYYTGDHYATFSLIDQTC
B1 showed a denaturant m value (pH 5.5, CD, None) of 2.32 kcal/mol/M, an unfolding free energy (pH 5.5, CD, None) of 7.5 kcal/mol and an unfolding free energy (pH 5.5, NMR hydrogen exchange) of 2.82 kcal/mol. It also gave a denaturant m value (pH 5.9, CD, None) of 2.3 kcal/mol/M and an unfolding free energy (pH 5.9, CD, None) of 6.7 kcal/mol.
